Assay results reported in the nanobody polyreactivity screen of Harvey et al. (2022).

assay: yeast display, Sf9 membrane polyspecificity reagent, FACS + sequencing; frameworks hold sequencing errors
Procedure, shortened: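 Galactose induction of a Saccharomyces cerevisiae BJ5465 synthetic nanobody display library ran 36–48 hours. The cells were then stained for 1 hour at 4 °C with 10% biotinylated, detergent-solubilized Sf9 membrane reagent, pulled down on streptavidin microbeads and FACS-sorted into low and high (top ~1%) gates on expression and reagent-binding fluorescence. Labels for polyreactivity follow the gate of origin.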

Row | Sequence | polyreactivity (PSR sort gate)
1 | QVQLVESGGGLVQAGGSLRLSCAASGFTFGLYVMGWYRQAPGKERELVAVISRSGGGTYYADSVKGRFTISRDNAKNTVYLQMNSLKPEDSAVYYCAKPFSYITGWYNYWGQGTQVTVSS | high polyreactivity
2 | QVQLVESGGGLVQAGGSLRLSCAASGFTFGPYAMGWSRQAPGKEREFVAAITSSGGSTYYADSVKGRFTISRDNAKNTVYLQMNSLKPEDTAVYYCNARSRGYVGKTPRRYYYWGQGTQVTVSS | high polyreactivity
3 | QVQLVESGGGLVQAGGSLRLSCAASGFTFGPYDLGWYRQAPGKERELVAAITDSSGSTHYADSVKGRFTISRDNAKNTVYLQMNSLKPEDTAVYYCAADDSSRTTYDYWGQGTQVTVSS | low polyreactivity
4 | QVQLVESGGGLVQAGGSLRLSCAASGFTFGPYDMGWYRQAPGTERELVAAITDSSGSTHYADSVKGRFTLSRDNAKNTFYLQMNSLKPEDTAVYYCAADVSSRTTYDYWGQGTQVTVSS | low polyreactivity
5 | QVQLVESGGGLVQAGGSLRLSCAASGFTFGRNAMGWYRQAPAKERELVAAISYDGTRTYYADSVKGRFTISRDKAKNTVYLQMNSLKPEDTAVYYGNAVWVRGFYRVYDYWGQGTQVTVSS | high polyreactivity
6 | QVQLVESGGGLVQAGGSLRLSCAASGFTFGRNAMGWYRQAPGKERELVAAISSSGGTTYYADSVKGRFTISRDNAKNTVYLQMNSLKPEDTAVYSCAARRWYQSRRGGFDYWGQGTQVTVSS | high polyreactivity
7 | QVQLVESGGGLVQAGGSLRLSCAASGFTFGRYAMGGYRQAPGKERELVAAITSRGGSTYYADSVKGRFTISRDNAKNTVYLQMNSLKPEDTAVYYCAAATNTGPRGYEYWGQGTQVTVSS | high polyreactivity
8 | QVQLVESGGGLVQAGGSLRLSCAASGFTFGRYAMGWYRQAPGKERELVAAISRGGSSTYYADSVKGRFTISRDNAKNTVYLQMNSLKPEDNAVYYCNKVIIWARFDYWGQGTQVTVSS | high polyreactivity
9 | QVQLVESGGGLVQAGGSLRLSCAASGFTFGRYAMGWYRQAPGKERELVAAISTSGGRTYYADSVKGRFTISRDNAKNTVYLQMNSLKPEDTAVYYCAAEQRRFTGYDYWGQGTQVTVSS | high polyreactivity
10 | QVQLVESGGGLVQAGGSLRLSCAASGFTFGRYAMGWYRQAPGKERELVAAISWSGTRTYYADSVKGRFTISRDNAKNTVYLQLNSLKPEDTADYYCAAYPPPWAQTGFYTYDYWGQGTQVTVSS | high polyreactivity
11 | QVQLVESGGGLVQAGGSLRLSCAASGFTFGRYAMGWYRQAPGKERELVAAITWSGGSTYYADSVKGRFTISRDNAKNTVYLQMNSLKPEDTAVYYCNRLSNNREYDYWGQGTQVTVSS | high polyreactivity
12 | QVQLVESGGGLVQAGGSLRLSCAASGFTFGRYAMGWYRQAPGKVRELVAAINWSGGSTYYADSVKGRFTISRDNAKNTVYLQMNSLKPEDPAVYYCNKGVSRSSVRGDYWGQGTQVTVSS | high polyreactivity
13 | QVQLVESGGGLVQAGGSLRLSCAASGFTFGSNAMGWYRQAPGKEREFVAAISRSGSRTYYADSVKGRFTISRDNAKNTVYLQMNSLKPEDTAVYYCNARSGEISQRHMDYWGQGTQVTVSS | high polyreactivity
14 | QVQLVESGGGLVQAGGSLRLSCAASGFTFGSNAMGWYRQAPGKERELVAAISSRGGRTYYADSVKGRFTISRDNAKNTVYLQMNSLKPEDTAVYYCAKYRSYRGPYNYWGQGTQVTVSS | high polyreactivity
15 | QVQLVESGGGLVQAGGSLRLSCAASGFTFGSNAMGWYRQAPGKERELVATISRRGGRTYYADSVKGRFTISRDNAKNTVYLQMNSLKPEDTAVYYCAADRSRPGYDYWGQGTQVTVSS | high polyreactivity
16 | QVQLVESGGGLVQAGGSLRLSCAASGFTFGSNTMGWYRQAPRKERELVAAITGRGGSTYYADSVKGRFTSSRDNAKNTVYLQMTSLKPEDTAVYYCAARTYPTGASFDYWGQGTQVTVSS | high polyreactivity
17 | QVQLVESGGGLVQAGGSLRLSCAASGFTFGSNVMGWYRQAPGKERELVAAIRGRGGSTYYADSVKGRFTISRDNAKNTVYLQMNSLKPEDTAVYYCNAVYSYYYRWYYDFDYWGQGTQVTVSS | high polyreactivity
18 | QVQLVESGGGLVQAGGSLRLSCAASGFTFGSYAMGWSRQAPGKERELVAVITRSGRTNYADSVKGRFTISRDNAKNTVYLQMNSLKPEDTAVYYCNADDVDDEVSPDLTEMDYWGQGTQVTVSS | low polyreactivity
19 | QVQLVESGGGLVQAGGSLRLSCAASGFTFGSYAMGWYRQAPGKERELVAVITRSGRTNYADSVKGRFTISRDNAKNTVYLQMNSLKPEDTEVYYCNADDVDDEVSPDLTEMDYWGQGTQVTVSS | low polyreactivity
20 | QVQLVESGGGLVQAGGSLRLSCAASGFTFGTYAMGWYRQAPGKERELVARITSGGRTNYADSVKGRFTISRDNAKNTVYLQMNSLKPEDTAVFYCNAVNGYYWGSRFDYWGQGTQVTVSS | high polyreactivity

Row | Sequence | polyreactivity (PSR sort gate)
21 | QVQLVESGGGLVQAGGSLRLSCAASGFTFGTYDMGWYRQAPGKERELVAAIDWGGGSTYYADSVKGRFTISRDNAKNTFYLQMNSLKTEDTAFYYCAADGPGDYLTLEWYWFTYYYWGQGTQVTVTS | high polyreactivity
22 | QVQLVESGGGLVQAGGSLRLSCAASGFTFGTYDMGWYRQAPGKERELVAAISTSGGSTYYADSVKGRFTISRDNAKNTVYLQMNSLKPEDTAVYYCAARIVYYGGYGYWGQGTQVTVSS | high polyreactivity
23 | QVQLVESGGGLVQAGGSLRLSCAASGFTFGVNAMGWYRQAPGKERELVAVITSGGNTYYADSVKGRFTISRDNAKNTVYLQMNSLKPEDTAVYYCAADLSDTSYATRYQGDYWGQGTQVTVSS | low polyreactivity
24 | QVQLVESGGGLVQAGGSLRLSCAASGFTFGVYAMGWYRQAPGKERELVAAISVSGGRTYYADSVKGRFTISRDNAKNTVYLQMNSLKPEDTAVYYCAADLGLKTSSRRTSMYYWGQGTQVTVSS | high polyreactivity
25 | QVQLVESGGGLVQAGGSLRLSCAASGFTFGVYAMGWYRQAPGKERELVAAITRSGSSTYYADSVKGRFTISRDNAKNTVYLQMNSLKPEDTAVYYCNKYKYVSAVQWKVAGDYWGQGTQVTVSS | low polyreactivity
26 | QVQLVESGGGLVQAGGSLRLSCAASGFTFGWYAMGWYRPAPGKERELVAAISSTGGRTYYADSVKGRFTISRDNAKNTVYLQMNSLKPEDTAVYYCAAAYSYGTEYGYWGQGTQVTVSS | high polyreactivity
27 | QVQLVESGGGLVQAGGSLRLSCAASGFTFGYNAMGWYRHAPGKERELVAAISYRDGSTYYADSVKGRFTISRDNAKNTVYLQMNSLKPEDTAVYYCAAEVWYPGWGYDYWGQGTQVTVSS | high polyreactivity
28 | QVQLVESGGGLVQAGGSLRLSCAASGFTFGYNAMGWYRQAPGKEREFVAAISISTGRTFYADSVKGRFTISRDNAKNTVYLQMNSLKPEDTAFYYCAARGYYPTNVGKYNYWGQGTQVTVSS | high polyreactivity
29 | QVQLVESGGGLVQAGGSLRLSCAASGFTFGYNAMGWYRQAPGKEREMVAAINYGGSTDYADSVKGRFTISRDYAKNTVYLQMNSLKPEDTAVYYCNIADRYAYWVRGRHRYGYWGQGTQVTVSS | low polyreactivity
30 | QVQLVESGGGLVQAGGSLRLSCAASGFTFGYNAMGWYRQTPGKERELVAVITQSGGRTYYADSVKGRFTISRDNAKNTVYLQMNSLKPEDTAVYYCAARYRLPPYYYWGQGTQVTVSS | high polyreactivity
31 | QVQLVESGGGLVQAGGSLRLSCAASGFTFGYYAMGRYRQAPGKERELVATITSSGASTYADSVKGRFTISRDNAKNTVYLLMNSLKPEDTAVYYCAADRLPSYWSWYGYDYWGQGTQVTVSS | high polyreactivity
32 | QVQLVESGGGLVQAGGSLRLSCAASGFTFGYYAMGWYRQAPGKERELVAAINWSGDSTYYADSVKGRFTISRDNAKNTVYLQMNSLKPEDTAVYYCNAVIEDLPYDYWGQGTQVTVSS | low polyreactivity
33 | QVQLVESGGGLVQAGGSLRLSCAASGFTFGYYAMGWYRQAPGKERELVAAITWNGGSTYYADSVKGRFTISRDYAKNTVYLQMNSLKPEDTAVYYCAAVYKYIQRYDYWGQGTQVTVSS | high polyreactivity
34 | QVQLVESGGGLVQAGGSLRLSCAASGFTFGYYAMGWYRQAPGKERELVARISRRGGTTYYADSVKGRFTISRDNAKTTVYLQMNSLKPEDTAVYYCATDGVWNRINRYDYWGQGTQVTVSS | high polyreactivity
35 | QVQLVESGGGLVQAGGSLRLSCAASGFTFGYYAMGWYRQAPGKERELVDAISSSGGSTYYSDSVKGSFTISRDNAKNTVYLQMNSLKPEDTAVYYCNRGTTVRGPGYTNGRDITRYDYWGQGTQVTVSS | high polyreactivity
36 | QVQLVESGGGLVQAGGSLRLSCAASGFTFGYYTMGWYRPEAGKEWELVAAISNSGGRTYYADSVKGRFTISLDYAKNTVYFQMNSLKPEDTAVYYCAKAYRTPGYDSWGQGTQVTVSS | high polyreactivity
37 | QVQLVESGGGLVQAGGSLRLSCAASGFTFGYYTMGWYRQAPGKERELVAAISWSGDSTYYADSVKGRFTISRDNAKNNVYLQMNSLKPEDTAVYYCAAAVYGSWPDYDYWGQGTQVTVSS | low polyreactivity
38 | QVQLVESGGGLVQAGGSLRLSCAASGFTFHNNVMGWYRQAPGKERELVATISKSGGSTYYADSVKGRFTISRDNAKNTVYLQMNSLKPEDTAVYYCAAETPTHDEWGQGTQVTVSS | high polyreactivity
39 | QVQLVESGGGLVQAGGSLRLSCAASGFTFHNYAMGWYRQAPGKEREFVAAITRNTASTYYADSVKGRFTISRDNAKTTVYLQMISLKPEATAVYYCAATDKKHRTAYDSWGQRTQVTVSS | low polyreactivity
40 | QVQLVESGGGLVQAGGSLRLSCAASGFTFHNYAMGWYRQAPGKERELVAAISASGSSTYYADSVKGRFTISRDNAKNTVYLQMNSLKPEDTAVYYCAAVGRYSPYGYWGQGTQVTVSS | high polyreactivity
